Reference: the domain aggregation screens of Martell et al. (2025)

Assay: soluble fraction after stress (log2 fold change); higher = more stays soluble; pooled small domains, quantitative proteomics
Settings: stress: pH 4
How it was run: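 Small protein domains from pooled custom libraries were exposed to pH 4, then quantified with high-throughput quantitative proteomics. The fold change in how much of each domain remains soluble is read as aggregation propensity. It is given as log2, with higher values meaning more stayed soluble.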

Compared with “HMEAMITEVKRINYGLISDISKSLDPFKSEGGHIIVDKRTNTFILTDLRANIEKMLWSIEIMD”, “HMEAPNELLVPEGARPARADRVLAAAFPEHSRTALQRAFDAGLVRRANLVLSRDTAVAGGDRIAFSLPAV” is higher in “soluble fraction (log2)” value: -0.248 for the first, 0.0302 for the second.

“HMEARYQLREVSLDGLRSGMILNADVLSTDGVLMARKGLEVSGLLRSRLEAFAKMERIEPTFKVLVPIAPP” and “HMEASSTAIQAMIRRLIDDENPRKPLSDAKLADLLKSSGIPVARRTVAKYREAMNISASHERVRI” are within 0.2 log units of each other in “soluble fraction (log2)” value: 0.284 for the first, 0.17 for the second.

Going from “HMEATEFYLEDLTGQMYNDVVNDEKYAGKIVFEKEEVQSDGEEAIGQILNQRPAGNMNVRIGTTVTLVVNA” to “HMEATVGSRVRLARIGLTLTQKQLAQAVGVSANHLAMVERGSKHASEDLLQRIATATHTTYEWLMGTSEHQ”, the “soluble fraction (log2)” value rises from -0.201 to 0.174.

Compared with “HMEAVIENAAIIKQNSGGYAVRATVNGVDLGMKPVERATALLYFSLTDKLEKDRLLSHTLQKTYGDLSA”, “HMEAYLPVTVVSDGKILTGNLEKAGKNEKWLENVLSELKTDVKNTLLLTVDPKDGLIFYPKG” is higher in “soluble fraction (log2)” value: -0.213 for the first, 0.0447 for the second.

First: HMEAYMVPNVKNKTLNEAQQALSNQKLKGLVIDSSYVKGVPDGMVLDQNPAGGARVKEGRTIYLTVTTS
Second: HMEDADERRALEVLNQLLDLPEREQEAALAALSLPPALARRVRSLLSVQTRAADLFDTAPSP
The “soluble fraction (log2)” value of the first is higher: 0.259 for the first, -0.6 for the second.

“HMEDAFLQRLISIIEANLSNVDFNVKMLAEQLNMSQPTLYRKVKQRSELSVIDMIRSIRILSLIHISEPTR” and “HMEDDRLIQNLLLTAKNLVMDVGRMDESALAENEDTVRTAMLFALGYLYENRSNPDYHKLTLNLRSILFA” are within 0.2 log units of each other in “soluble fraction (log2)” value: -0.919 for the first, -0.807 for the second.

“HMEDEISLGAINVPRGSVIVTAGGARLVEGSDYTVDYYSGTVKILNKSLLDAGTPINVSLET” and “HMEDETAKVLRLLAENNGYLPYNDKSDPTDIYAFFGMSKKAFKMTTGNLYKQKKIQFTQTGIQLIE” are within 0.2 log units of each other in “soluble fraction (log2)” value: -0.0859 for the first, -0.16 for the second.

First: HMEDEVSSSAAYQALLEKGVSKTLARSWVIDYGEAYVLDKVDLTTSQAARGKIKSSTAGFLKAAIEEDFHN
Second: HMEDGEALARAVASLPGKYREVLFLKYSHGYSVDEIALILSMSKENVKKTIQRARKKLEQLLESE
The “soluble fraction (log2)” value of the first is lower: -0.765 for the first, -0.507 for the second.

First: HMEDGEVTVPDLRGLTIKEAGTILEKLGLHLSPVGTGLAVRQDVAPGSKVARDTTITVEFEPPDIQVLR
Second: HMEDIKHVVANNIKKYRKEERLTLQQLSYLTGVSKTMLNQIETEKSSPSITILWRISSGLKIPLSKLISSP
The “soluble fraction (log2)” value of the first is lower: -0.259 for the first, 0.143 for the second.

First: HMEDIPENIRYKFLLKELKENEHLNILDKENIARKLTEIDLPELEKELLENEILNSTIKDYLGIKLV
Second: HMEDKFEYQGELKSLIEPTSFSELVSALNVRDTLQAIIDFAMREEDTSGYEELKVRQNDYIQEYLNSIGNF
The “soluble fraction (log2)” value of the first is higher: -0.912 for the first, -1.28 for the second.

First: HMEDKFEYQGERKSLIYPTSFSELTEALGVRNMLQSIIDFATRDEDTSGYEEMKERQNEYIQEYL
Second: HMEDKKQVLYELITDKSYRPLRFKELAVLLMVPKALRGELKQTLDELIKEGKITVDSSSRYRAA
The “soluble fraction (log2)” value of the first is lower: 0.0125 for the first, 0.276 for the second.

Compared with “HMEDLDKIISAYLDENPQIVSDYGKGNKKAVNSAIGFVMKSTGGKYSSSDIVDAVRSMIVSISV”, “HMEDNYYENKINYLFGYLDEADKEISVNSILDFHLAHRTNPEFVFEPKKNTNPLIWKYLSNSNLLY” is higher in “soluble fraction (log2)” value: -0.254 for the first, 0.0187 for the second.

Going from “HMEDPLGDLIGRIAAATGRPVQDIVAEVHRVVTDHFDGNLRVEAAAVILARKYGVAFEDKLSALQRSV” to “HMEDSAKRHQIMDGARRVFMDLGFDGASMNEIARAAGVSKGTLYVYFTDKNRLFEAIVEQESL”, the “soluble fraction (log2)” value falls from -0.559 to -1.15.

First: HMEDSEYDRLLAEIDEGIRKAIETLEPVELSPQNARVRRIQHQIIEKYQLHSDSVGEEPYRRVRIL
Second: HMEDSHIYPVSFNGKMRFKLELPVSMNKKEIEEVVLQHEDAQKWLNGQNPKKVIVVPKRIINIV
The “soluble fraction (log2)” value of the first is lower: -1.03 for the first, 0.308 for the second.

First: HMEDTVNVPIQINGKLRHVIQVQIGTSEEEIQKIALSEEQVKKFTDGHEILKVMVPKGKLVSIVI
Second: HMEDVLVTQIIQLKHVDANDMKTLFTPLLSRGSSQLLAYPQSNVLIITDTRSNIKKITEILDIIDKS
The “soluble fraction (log2)” value of the first is higher: -0.126 for the first, -0.838 for the second.

First: HMEDVRSLTGPEKAAIILLSLGEEHGQGVWRMFDDEEVKEVSQIMANLGTISASVVEKLLVEFVSQMST
Second: HMEDYYKILGVQSNSNPDDIKKAYRKLSLKHHPDRGGDASEFKKINEAYQTLGTPEKRKMYDMQQNN
The “soluble fraction (log2)” value of the first is lower: -1.5 for the first, ≥ 0.43 for the second.

First: HMEEEPALLRDLLAKTLEFGLIPQLSHHPALADRTQQLASAVRAAGSASALRNAAASLKSLWIDVDQ
Second: HMEEFDLNAYITKINSAATLNALKQAYAEANSAALSVKDKDAQRKIIVEKDKRKAELIQETAG
The “soluble fraction (log2)” value of the first is lower: -0.617 for the first, 0.313 for the second.

“HMEEIALTDILNRFLSSLSLEQRKIFMRRYWYLSPIKEIATEYGMSESKIKMSLFRSRNELKKLLEKEGI” and “HMEEINTAPVFKNIIEIAEYAKTKFTTVEEIPKMIEFIETANSKLDNPHDEESVNELINALSTNIRKNV” are within 0.2 log units of each other in “soluble fraction (log2)” value: -0.406 for the first, -0.554 for the second.

Compared with “HMEEITLIAEDEGLRLDTWLTDKLKDYSRSYIQKLMEDELVLVNGKARKANYRIKTGDEIHVSIPEPE”, “HMEELLVAVKADGSIWADGRPITPDGLASFIDSKPADAVLNLAVDKKAPFAAFVKVVDVAKEKKSGRFVIR” is higher in “soluble fraction (log2)” value: -0.507 for the first, -0.141 for the second.

First: HMEELPIIVAQRFLNIFRQLHIFSDERREAFNKMLLELPPEVKSIFQSLPGGTPLQEYMEDLEQKSK
Second: HMEELTPLQKYVFDYESDISDEVDMRAIKGLENANDVYDYYANVRGWEGDPDLEDDLDNIYRQVKARFA
The “soluble fraction (log2)” value of the first is higher: -0.262 for the first, -1.2 for the second.

Going from “HMEEMTIRQKRTMIFFIEATKHILQEDGYDHLTIREIAQRAGYNAATLYHYFRDLDELIIYGSVG” to “HMEEPEELYRVKILIYNLLVRNGPGILYTRLRRADYPGEYGIYEEKNGYGKISATLSEWISLNTEYVQRLD”, the “soluble fraction (log2)” value rises from -0.602 to -0.378.

First: HMEEVYVPDIRDKSISDAKKILSQMGLKYRIEGEGYDDSTVIKDQTPKPGALLAKDSVVIAYINE
Second: HMEEYLENLTQSKLLHMLDQLSPAYKTVFTLFVLDELSHEEISKMLNISIGTSKSNLFRARKVMRVLMESE
The “soluble fraction (log2)” value of the first is higher: -0.0728 for the first, -0.283 for the second.

First: HMEFDIDAAIHAALEPQAVMRAWFGHEGREYPEDFGVVFFRGWESFTHQEKVEAVRDAKKVLDRAVR
Second: HMEFDSLINYEVKKKETLFSISKKFKIEINDLLSFNTELKNNKLKKNSIIIIPLKKKIVESQNFEKQKIID
The “soluble fraction (log2)” value of the first is lower: -1.17 for the first, -0.719 for the second.

“HMEFENIEQRKQYWSDLYRELKAGQDAYAKELKKGTEGYTQDELDILKEFTDEAKKQMEAAGVEATDEFAS” and “HMEFLLAIQPFVLLTDHANLTFLREQTDSMMKRIQINISGFEIEFRYVPGLTNILPDKMSRV” are within 0.2 log units of each other in “soluble fraction (log2)” value: -0.176 for the first, -0.199 for the second.

Compared with “HMEFQEQLYRLRKQAGLSQEELSHIIGVSRQAVQKWEAGSARPDLDNLIALASHFKLSLDQLVGLT”, “HMEFQSIGGKIRIGREREHLTQAELAQKLSVTRQAVSNWERDKTLPDIYMIREIAEIFGLTLDEFMEGAKK” is higher in “soluble fraction (log2)” value: -0.125 for the first, 0.0806 for the second.

Going from “HMEGDAFAFTGDIQKDLLSITAVHPMRREAVDALIAKAGASWAIVEKLLAHGELTEAKHDGHLFYLRKF” to “HMEGIAEILPASVRQKYGLIGLYDALRGLHFPGNMEEIKAARQRLAFEDTLMFSLTLSMMQYS”, the “soluble fraction (log2)” value rises from -0.354 to -0.0837.

Going from “HMEGIAYDINTAPEHIDLKAEDMMATFNIGKTALWRWVKQKILPPPYEYRSQAAHWTIGQIRDWKTA” to “HMEGLDDKTKIILFAGDKKEQEYSLADLKSKLNITENLTESELIKLLEKQGYVLDVNANNEFMFKKD”, the “soluble fraction (log2)” value rises from -0.417 to 0.22.

First: HMEGNFFADIRQELMRELDQEAEWSDVQILEKIDDLVLLRTRRSSLTVNEKEQLRKELFYSVRK
Second: HMEGRTVMATTAVNVRSGPGTSYKILGVLYPGHTAQQIGNTRYGWAQVTWKGHTAYIAARYLRDS
The “soluble fraction (log2)” value of the first is lower: -0.394 for the first, 0.301 for the second.

First: HMEGSLQEDKVKEYQDRFKEELSNDLNTANSITVLYDLIKDDTLNGTTKRYLIEDFDKILSLDLIKE
Second: HMEGSVTVMVNGESVTMTGKQNYIFVDVFDWYSFDLSAGKGRAIATLVNGKEAEFSQPLANGDNIELYWKE
The “soluble fraction (log2)” value of the first is higher: -0.854 for the first, -1.42 for the second.

First: HMEGTAAAVALKGLMEQSGVDLREVMAAVESRGYYPKGTPFENYDPAFVSGVLVGAWDQVYKMILDQRPIP
Second: HMEGVSPQTVQEHIRRFIAAEDPASPLSDEALREALGNLGINASRRTVAKYRGEMGIPSSAQRKR
The “soluble fraction (log2)” value of the first is lower: -1.1 for the first, 0.00892 for the second.

“HMEGVSSESVKEMLKSIIDGEDPHNPVSDQRITDILNSRGINISRRTVAKYRDELGIASSSRRKRY” and “HMEGYLYLSESQNELILKNLKTPLKYNLYNASGKLIKKGNIKNTLDISELPKGVYIFTSSDNSFSKKFLKT” are within 0.2 log units of each other in “soluble fraction (log2)” value: 0.112 for the first, 0.276 for the second.

Compared with “HMEHAETDTRERILVVAERLFRQLGYQKTTVADIAKELRMSPANVYRFFDSKKSIHEGVARTL”, “HMEHETTQLELNAPGQRLDAALALALPDTSRAQIQQWIKQGLVTDQAGTALLQASLKLKSPLNVVLQRPI” is lower in “soluble fraction (log2)” value: 0.275 for the first, 0.0662 for the second.

“HMEHIDVSGRAFDVSVSRLKRARRLTMRIDTHKQLVKISAPLHVESSTIRAFLARNQNWLEQQVEKR” and “HMEHLTATERHLVAYLEAHLGQVPSLSITKLSQEANVSTASIVRTMKKLGYDGFTAFKHAIKQQLR” are within 0.2 log units of each other in “soluble fraction (log2)” value: 0.199 for the first, 0.156 for the second.

“HMEHTPHGVALLRTLMDQYGLKAADLANELGSKSNVSNILNGRRALTVSHIKMLAERFNLPADAFI” and “HMEIALNDKQILLFSNKLVHEPSFASKYSKVGESYDDFAIRISENLTIPDKVQEYLPYLEKVGFNI” are within 0.2 log units of each other in “soluble fraction (log2)” value: -0.137 for the first, -0.191 for the second.

For “HMEIDDPWLILGINAGSSIEIAQKAWKDLASQNHPDKLIANGVPKELLGMANEKLAIINGAYDKILKAHKI”, the “soluble fraction (log2)” value was -0.792.
